Results from US20120329707A1 (INDIANA UNIVERSITY RESEARCH AND TECHNOLOGY, published 2012).
Numbered stars: 1 amine (or outer) side, 2 acyl side, 3 side chain; on linkers, the order of the positions; unused ones are H or OH. Square brackets hold non-standard residues; d marks the D form. Primed or numbered codes have the meaning given here. Side chains are listed from the residue outwards. Ends that are not written are not given here. * marks the point of attachment. 40K‑TE PEG = 40 kDa PEG covalently bound via thioether, formed by reaction of the free thiol of the peptide (Cys side chain) with an iodoacetic-functionalized PEG; 40K‑TE PEG(3) = 40 kDa PEG bound to the Cys thiol via a thioether, made by reacting the free-thiol peptide with iodoacetic-functionalised PEG; 40K‑TE PEG″ = 40 kDa PEG bound to Cys via thioether made from an iodoacetyl-functionalised PEG; EDTA amide = ethylenediaminetetraacetic acid amide, O=C(O)CN(CCN(CC(=O)O)CC(=O)*)CC(=O)O; 20K‑TE PEG = 20 kDa PEG bound via thioether from iodoacetic-functioned PEG; benzoylpropionyl = benzoylpropionyl acyl group, O=C(CCC(=O)*)c1ccccc1; 12K‑ME PEG = 12 kDa PEG bound via maleimido-thioether; Acetyl(1-adamantyl) = O=C(CC12CC3CC(CC(C3)C1)C2)*; γGlu = O=C(O)[C@H](CCC(=O)[*:2])N[*:1]; Palmitoyl = CCCCCCCCCCCCCCCC(=O)*; Aib = CC(C)(N)C(=O)O

Key:
Assay in all cases: cell-based or functional assay
[1] = target: GLP-1 receptor
[2] = target: glucagon receptor
[3] = target: T1, GIP receptor
T1 sequence (P48546 whole entry, species assumed, looked up): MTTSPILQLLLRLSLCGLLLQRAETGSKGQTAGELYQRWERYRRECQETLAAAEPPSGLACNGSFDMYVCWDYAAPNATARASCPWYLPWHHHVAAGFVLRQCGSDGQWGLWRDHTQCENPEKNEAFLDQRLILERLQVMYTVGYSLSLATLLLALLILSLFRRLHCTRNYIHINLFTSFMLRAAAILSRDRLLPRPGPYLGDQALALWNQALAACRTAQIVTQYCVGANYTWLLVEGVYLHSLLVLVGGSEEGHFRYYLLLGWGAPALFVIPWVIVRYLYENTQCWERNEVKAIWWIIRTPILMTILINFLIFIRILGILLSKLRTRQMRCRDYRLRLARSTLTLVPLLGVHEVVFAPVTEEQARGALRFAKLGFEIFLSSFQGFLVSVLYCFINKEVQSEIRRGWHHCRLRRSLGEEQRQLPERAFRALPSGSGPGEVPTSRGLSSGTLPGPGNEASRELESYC

Row | Binder | EC50 (nM) at GLP-1 receptor [1] [nM] | EC50 (nM) at glucagon receptor [2] [nM] | EC50 (nM) at GIP receptor [3] [nM]
1 | H[dS]QGTFTSDK([γGlu-Palmitoyl])SKYLDEQAAKEFIC(20K‑TE PEG)WLLDT-NH2 [peptide of SEQ ID NO: 44] | 0.017 | 0.023 | 
2 | H[Aib]QGTFTSDYSKYLDEKRA[Aib]EFVC(40K‑TE PEG)WLLDT-OH [peptide of SEQ ID NO: 45] | 1.44 | 0.651 | 
3 | H[Aib]QGTFTSDYSKYLD[Aib]KRA[Aib]EFVC(40K‑TE PEG(3))WLLDGGPSSGAPPPS-NH2 [peptide of SEQ ID NO: 46] | 0.136 | 0.227 | 
4 | H[Aib]QGTFTSDYSKYLD[Aib]KRAKEFVQWLLC(40K‑TE PEG)T-OH [peptide of SEQ ID NO: 39] | 1.28 | 0.852 | 
5 | H[Aib]QGTFTSDYSKYLD[Aib]KRA[Aib]EFVC(40K‑TE PEG″)WLLDT-NH2 [peptide of SEQ ID NO: 38] | 0.31 | 0.141 | 
6 | H[Aib]QGTFTSDK(Palmitoyl)SKYLDSRRA[Aib]DFVQWLMNT-NH2 (N-terminus assumed; SMILES CCCCCCCCCCCCCCCC(=O)NCCCC[C@H](NC(=O)[C@H](CC(=O)O)NC(=O)[C@H](CO)NC(=O)[C@@H](NC(=O)[C@H](Cc1ccccc1)NC(=O)[C@@H](NC(=O)CNC(=O)[C@H](CCC(N)=O)NC(=O)C(C)(C)NC(=O)[C@@H](N)Cc1c[nH]cn1)[C@@H](C)O)[C@@H](C)O)C(=O)N[C@@H](CO)C(=O)N[C@@H](CCCCN)C(=O)N[C@@H](Cc1ccc(O)cc1)C(=O)N[C@@H](CC(C)C)C(=O)N[C@@H](CC(=O)O)C(=O)N[C@@H](CO)C(=O)N[C@@H](CCCNC(=N)N)C(=O)N[C@@H](CCCNC(=N)N)C(=O)N[C@@H](C)C(=O)NC(C)(C)C(=O)N[C@@H](CC(=O)O)C(=O)N[C@@H](Cc1ccccc1)C(=O)N[C@H](C(=O)N[C@@H](CCC(N)=O)C(=O)N[C@@H](Cc1c[nH]c2ccccc12)C(=O)N[C@@H](CC(C)C)C(=O)N[C@@H](CCSC)C(=O)N[C@@H](CC(N)=O)C(=O)N[C@H](C(N)=O)[C@@H](C)O)C(C)C) [peptide of SEQ ID NO: 58] | 0.025 | 0.09 | 35.7
7 | H[dS]QGTFTSDK([γGlu-Acetyl(1-adamantyl)])SKYLDERAAQDFVQWLLDT-NH2 (N-terminus assumed; SMILES CC(C)C[C@H](NC(=O)[C@H](Cc1ccc(O)cc1)NC(=O)[C@H](CCCCN)NC(=O)[C@H](CO)NC(=O)[C@H](CCCCNC(=O)CC[C@H](NC(=O)CC12CC3CC(CC(C3)C1)C2)C(=O)O)NC(=O)[C@H](CC(=O)O)NC(=O)[C@H](CO)NC(=O)[C@@H](NC(=O)[C@H](Cc1ccccc1)NC(=O)[C@@H](NC(=O)CNC(=O)[C@H](CCC(N)=O)NC(=O)[C@@H](CO)NC(=O)[C@@H](N)Cc1c[nH]cn1)[C@@H](C)O)[C@@H](C)O)C(=O)N[C@@H](CC(=O)O)C(=O)N[C@@H](CCC(=O)O)C(=O)N[C@@H](CCCNC(=N)N)C(=O)N[C@@H](C)C(=O)N[C@@H](C)C(=O)N[C@@H](CCC(N)=O)C(=O)N[C@@H](CC(=O)O)C(=O)N[C@@H](Cc1ccccc1)C(=O)N[C@H](C(=O)N[C@@H](CCC(N)=O)C(=O)N[C@@H](Cc1c[nH]c2ccccc12)C(=O)N[C@@H](CC(C)C)C(=O)N[C@@H](CC(C)C)C(=O)N[C@@H](CC(=O)O)C(=O)N[C@H](C(N)=O)[C@@H](C)O)C(C)C) [peptide of SEQ ID NO: 48] | 0.039 | 0.026 | 
8 | H[Aib]QGTFTSDYSKYLD[Aib]KRAKEFVQWLLDTC(40K‑TE PEG″)-NH2 [peptide of SEQ ID NO: 40] | 0.653 | 1.19 | 
9 | H[Aib]QGTFTSDYSKYLDEKRA[Aib]EFVC(40K‑TE PEG)WLLDT-NH2 [peptide of SEQ ID NO: 13] | 0.067 | 0.141 | 
10 | H[Aib]QGTFTSDYSKYLDEK[Aib]AKEFVC(40K‑TE PEG(3))WLLDT-NH2 [peptide of SEQ ID NO: 52] | 0.054 | 4.5 | 
11 | H[dS]QGTFTSDK(benzoylpropionyl)SKYLDERAAQDFVQWLLDGGPSSGAPPPS-NH2 (N-terminus assumed; SMILES CC(C)C[C@H](NC(=O)[C@H](CC(C)C)NC(=O)[C@H](Cc1c[nH]c2ccccc12)NC(=O)[C@H](CCC(N)=O)NC(=O)[C@@H](NC(=O)[C@H](Cc1ccccc1)NC(=O)[C@H](CC(=O)O)NC(=O)[C@H](CCC(N)=O)NC(=O)[C@H](C)NC(=O)[C@H](C)NC(=O)[C@H](CCCNC(=N)N)NC(=O)[C@H](CCC(=O)O)NC(=O)[C@H](CC(=O)O)NC(=O)[C@H](CC(C)C)NC(=O)[C@H](Cc1ccc(O)cc1)NC(=O)[C@H](CCCCN)NC(=O)[C@H](CO)NC(=O)[C@H](CCCCNC(=O)CCC(=O)c1ccccc1)NC(=O)[C@H](CC(=O)O)NC(=O)[C@H](CO)NC(=O)[C@@H](NC(=O)[C@H](Cc1ccccc1)NC(=O)[C@@H](NC(=O)CNC(=O)[C@H](CCC(N)=O)NC(=O)[C@@H](CO)NC(=O)[C@@H](N)Cc1c[nH]cn1)[C@@H](C)O)[C@@H](C)O)C(C)C)C(=O)N[C@@H](CC(=O)O)C(=O)NCC(=O)NCC(=O)N1CCC[C@H]1C(=O)N[C@@H](CO)C(=O)N[C@@H](CO)C(=O)NCC(=O)N[C@@H](C)C(=O)N1CCC[C@H]1C(=O)N1CCC[C@H]1C(=O)N1CCC[C@H]1C(=O)N[C@@H](CO)C(N)=O) [peptide of SEQ ID NO: 49] | 0.01 | 0.063 | 
12 | H[Aib]QGTFTSDYSKYLDEKRA[Aib]EFVC(40K‑TE PEG)WLL[Aib]GGPSSGAPPPS-NH2 [peptide of SEQ ID NO: 51] | 0.062 | 2.04 | 
13 | H[dS]QGTFTSDK([γGlu-Palmitoyl])SKYLDEQAAKEFIC(12K‑ME PEG)WLLDT-NH2 [peptide of SEQ ID NO: 43] | 0.011 | 0.02 | 
14 | H[dA]QGTFTSDK([γGlu-Palmitoyl])SKYLDERAAQDFVQWLLDT-NH2 [peptide of SEQ ID NO: 56] | 0.02 | 0.006 | 1.64
15 | H[Aib]QGTFTSDYSKYLDEKRA[Aib]EFVC(40K‑TE PEG)WLLDGGPSSGAPPPS-NH2 [peptide of SEQ ID NO: 47] | 0.052 | 0.591 | 
16 | H[Aib]QGTFTSDYSKYLDEKRA[Aib]EFVC(40K‑TE PEG)WLL[Aib]T-NH2 [peptide of SEQ ID NO: 41] | 0.074 | 0.309 | 
17 | H[dS]QGTFTSDK(EDTA amide)SKYLDERAAQDFVQWLLDGGPSSGAPPPS-NH2 [peptide of SEQ ID NO: 55] | 0.108 | 4.34 | 
18 | H[Aib]QGTFTSDYSKYLDEKRA[Aib]DFVC(40K‑TE PEG(3))WLLDT-NH2 [peptide of SEQ ID NO: 54] | 0.097 | 0.939 | 
19 | H[Aib]QGTFTSDYSKYLDEKRA[Aib]EFVC(40K‑TE PEG″)WLLDE-NH2 [peptide of SEQ ID NO: 16] | 0.487 | 0.563 | 465
20 | H[Aib]QGTFTSDYSKYLDEKRA[Aib]EFV[Aib]WLLC(40K‑TE PEG)T-NH2 [peptide of SEQ ID NO: 42] | 0.117 | 1.01 | 
